Legend:
[1] = tested on: mononuclear cells (PBMC); test: Cytokines (IFN-β, IL-4) in PBMC culture supernatants, ELISA; format: cell-based, human; settings: 5 μg/ml LmPDI, 48 hours, small sample of individuals
Method: Cytokines (IFN-β, IL-4) in PBMC culture supernatants were induced by incubating mononuclear cells for 48 hours with the same concentration of LmPDI and assaying by means of an ELISA test using human anti-IL-4 and anti-IFN-β monoclonal antibodies (Pharmingen, San Diego, Calif.).

[2] = tested on: scrambled RNase A; test: Reactivation of scrambled RNase A in the presence of recombinant LmPDI protein (PDI activity); format: biochemical; settings: 1.4 μM recombinant LmPDI, 30 minutes at 25° C., compared with bovine PDI; FIG. 4
Method: Scrambled RNase A (8 μM) was incubated in a buffer containing 4.5 mM (cCMP), 1 mM glutathione GSH, 0.2 mM glutathione disulfide GSSH, 2 mM EDTA and 100 mM Tris-HCl pH 8 in the presence of bovine serum albumin (BSA) (1.4 μM) as a negative control, bovine protein disulfide-isomerase (1.4 μM) as the positive control, or recombinant LmPDI (1.4 μM) for 30 minutes at 25° C. RNase A reactivation was determined by measuring the RNase A activity at 296 nm every 5 minutes for 30 minutes (Lyles and Gilbert, 1991).
20 mg of purified ribonuclease (RNase A) was scrambled at ambient temperature for 18 hours in a buffer containing 0.15 M of DTT, 6 M of guanidine-HCl and 0.1 M of Tris-HCl at a pH of 8.6 before being purified on a Sephadex G-25 column equilibrated in 0.01 M HCl. The concentration of scrambled RNase A fractions was determined using an extinction coefficient of 9200 M^−1 cm^−1 at 275 nm. Thu fractions were stored at −80° C. for two weeks.
Scrambled RNase A (8 μM) was incubated in a buffer containing 4.5 mM cCMP, 1 mM glutathione GSH, 0.2 mM glutathione disulfide GSSH, 2 mM EDTA and 100 mM of Tris-HCl pH 8 in the presence of bovine serum albumin (BSA) (1.4 μM) as a negative control, bovine protein disulfide-isomerase (1.4 μM) as a positive control, or recombinant LmPDI (1.4 μM) for 30 minutes at 25° C. […]

[3] = tested on: mononuclear cells; test: In vitro proliferation of mononuclear cells from individuals of a ZCL region, tritiated thymidine incorporation; format: cell-based, human; settings: 5 μg/ml LmPDI, 5 days of culture, immune individuals (positive SLA test); FIG. 8
Method: The lymphomonocytary cells were recovered, washed by 3 successive centrifuge runs with RPMI-PS/Glu medium (30 ml then twice 10 ml) then counted and incubated at a concentration of 10^6 cells/ml of medium in the presence or absence of a concentration of 5 μg/ml of LmPDI. After 5 days of culture, lymphocyte stimulation was estimated by incorporating tritiated thymidine. The result is expressed in CPM.
L. major LmPDI, because of its high expression during the infectious stage of the parasite, could be a target for a cellular immune response. In order to verify the pertinence of this hypothesis, the capacity of LmPDI to induce a cellular immune response was evaluated by means of experiments on the proliferation of mononuclear cells obtained from individuals having active lesions or ZCL antecedents.
This study was carried out in 37 individuals living at El Guettar (southern Tunisia) for whom the results of the cellular proliferation test against total antigens from the parasite (SLA, a test indicating prior contact with the parasite) was available. These individuals were divided up as follows:
Mononuclear cells comprising lymphocytes and monocytes were separated from peripheral blood by centrifuging on a Ficoll/Hypaque gradient (Pharmacia, Uppsala, Sweden).

B1: LmPDI: recombinant protein disulfide isomerase of Leishmania major, SEQ ID No: 3, produced in E. coli; vaccine candidate (protein)
chain: MAEVQVATKDNFDKVVIGDLTLVKFYAPWCGHCKTLAPEFVKAADMLAGIATLAEVDCTKEESLAEKYEIKGFPTLYIFRNGEKVKIYDGPRTAAGIASYMKAHVGPSMKAISTAEELEELKKETFPVCVVKTASTDSEMASMITKVADSLRSQMNFVLVTDAAISPNDAMESVTVYRKNAEREAYTGATPMTAESVKSFLTSAVLDYFGELGQESFQKYMEANKDKPLGWVFIDKNTDSALKGSLVAVAEKYRSQVLLTYIDGDQYRPVSRQLGIPEDAKFPAFVVDFERRHHVMGTDTPVTSESVAAFVEKYVKGETKQTVMSDAIPAKETVNGLTTVVGQTFAKYTDGTQNVMLLFYAPWCGHCKKLHPVYDKVAKSFESENVIIAKMDATTNDFDREKFEVSGFPTIYFIPAGKPPIVYEGGRTADEIQVFVKSHLTASAAPSGGPSGNSEEEDLLEHHHHHH
modifications: His6 tag
notes: vaccine candidate
- IFN-β in the supernatant from stimulated cells [1]: significant amounts
- IL-4 in the supernatant from stimulated cells [1]: absence
- restoration of RNase A activity [2]: capable of restoring RNase A activity
- proliferation of mononuclear cells [3]: significant proliferation

— patent US8715697B2, “Genes associated with Leishmania parasite virulence” (priority 2001, dated 2014)
